Here are results for 3 molecules from publication PMC7020397 (Toxins, 2020).

Experiment [1] addresses muscle-type Torpedo nAChR (Torpedo). The experiment in a line: competition with α-bungarotoxin.
For a further experiment, the target named is human neuronal α7 nAChR (human, UniProt P36544 23-502). The experiment in a line: competition with α-bungarotoxin.

One may read the IC50 as the concentration that inhibits the measured activity by half.

Ends that are not written are not given here.

Chain of muscle-type Torpedo nAChR (Torpedo) (P02710 25-461 limits assumed, chain 1 of 4): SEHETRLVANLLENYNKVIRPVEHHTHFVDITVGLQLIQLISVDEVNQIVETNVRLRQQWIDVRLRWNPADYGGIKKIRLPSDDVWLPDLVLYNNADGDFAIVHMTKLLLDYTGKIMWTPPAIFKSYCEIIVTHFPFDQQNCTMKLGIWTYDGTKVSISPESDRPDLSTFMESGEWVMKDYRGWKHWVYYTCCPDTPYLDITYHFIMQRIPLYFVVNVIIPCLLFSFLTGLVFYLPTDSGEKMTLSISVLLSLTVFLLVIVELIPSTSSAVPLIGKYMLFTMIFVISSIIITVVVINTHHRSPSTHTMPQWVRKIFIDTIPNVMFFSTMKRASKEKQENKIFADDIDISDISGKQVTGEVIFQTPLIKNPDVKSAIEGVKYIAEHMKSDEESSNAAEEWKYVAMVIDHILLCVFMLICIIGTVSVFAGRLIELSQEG
Chain of muscle-type Torpedo nAChR (Torpedo) (P02712 25-493 limits assumed, chain 2 of 4, further chain): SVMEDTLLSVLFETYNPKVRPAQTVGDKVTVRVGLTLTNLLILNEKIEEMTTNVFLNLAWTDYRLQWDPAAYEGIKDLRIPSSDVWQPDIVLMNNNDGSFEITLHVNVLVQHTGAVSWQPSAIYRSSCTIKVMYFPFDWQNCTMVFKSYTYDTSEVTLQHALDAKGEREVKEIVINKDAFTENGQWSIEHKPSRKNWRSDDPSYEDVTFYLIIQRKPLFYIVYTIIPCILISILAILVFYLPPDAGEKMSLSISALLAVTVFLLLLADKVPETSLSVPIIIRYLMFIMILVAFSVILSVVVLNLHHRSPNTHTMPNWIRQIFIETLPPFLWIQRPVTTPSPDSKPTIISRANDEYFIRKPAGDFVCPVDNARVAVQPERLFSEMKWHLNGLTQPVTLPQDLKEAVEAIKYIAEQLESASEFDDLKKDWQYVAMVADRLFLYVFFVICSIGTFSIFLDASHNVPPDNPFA
Chain of muscle-type Torpedo nAChR (Torpedo) (P02714 18-506 limits assumed, chain 3 of 4, further chain): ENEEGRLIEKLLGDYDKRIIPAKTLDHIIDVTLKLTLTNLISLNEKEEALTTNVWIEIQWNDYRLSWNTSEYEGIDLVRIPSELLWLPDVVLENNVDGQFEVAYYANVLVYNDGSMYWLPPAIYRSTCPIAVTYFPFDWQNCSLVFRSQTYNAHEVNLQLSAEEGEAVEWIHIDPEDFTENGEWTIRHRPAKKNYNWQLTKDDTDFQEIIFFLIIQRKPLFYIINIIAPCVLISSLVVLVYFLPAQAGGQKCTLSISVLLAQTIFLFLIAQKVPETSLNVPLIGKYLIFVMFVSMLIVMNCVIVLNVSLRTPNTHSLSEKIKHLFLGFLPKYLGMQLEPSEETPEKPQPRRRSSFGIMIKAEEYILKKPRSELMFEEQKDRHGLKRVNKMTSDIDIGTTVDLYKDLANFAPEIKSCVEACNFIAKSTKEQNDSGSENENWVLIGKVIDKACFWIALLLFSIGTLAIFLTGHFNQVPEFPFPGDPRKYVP
Chain of muscle-type Torpedo nAChR (Torpedo) (P02718 22-522 limits assumed, chain 4 of 4, further chain): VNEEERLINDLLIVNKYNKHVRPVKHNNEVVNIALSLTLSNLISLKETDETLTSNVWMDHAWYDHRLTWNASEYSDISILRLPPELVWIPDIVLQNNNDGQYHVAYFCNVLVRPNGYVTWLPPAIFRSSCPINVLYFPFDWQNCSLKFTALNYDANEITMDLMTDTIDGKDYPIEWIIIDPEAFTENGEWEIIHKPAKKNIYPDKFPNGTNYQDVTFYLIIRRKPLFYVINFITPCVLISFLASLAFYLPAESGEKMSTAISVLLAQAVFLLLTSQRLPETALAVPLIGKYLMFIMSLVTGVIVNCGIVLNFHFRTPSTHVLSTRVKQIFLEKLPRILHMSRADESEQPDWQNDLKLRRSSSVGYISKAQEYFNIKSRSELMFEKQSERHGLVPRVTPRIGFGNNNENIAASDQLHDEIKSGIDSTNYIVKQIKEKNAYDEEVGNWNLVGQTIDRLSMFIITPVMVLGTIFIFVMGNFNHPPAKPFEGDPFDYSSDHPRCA
Chain of OSK-1 (P55896 whole entry): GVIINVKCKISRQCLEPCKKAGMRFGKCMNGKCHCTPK
Chain of human neuronal α7 nAChR (P36544 23-502): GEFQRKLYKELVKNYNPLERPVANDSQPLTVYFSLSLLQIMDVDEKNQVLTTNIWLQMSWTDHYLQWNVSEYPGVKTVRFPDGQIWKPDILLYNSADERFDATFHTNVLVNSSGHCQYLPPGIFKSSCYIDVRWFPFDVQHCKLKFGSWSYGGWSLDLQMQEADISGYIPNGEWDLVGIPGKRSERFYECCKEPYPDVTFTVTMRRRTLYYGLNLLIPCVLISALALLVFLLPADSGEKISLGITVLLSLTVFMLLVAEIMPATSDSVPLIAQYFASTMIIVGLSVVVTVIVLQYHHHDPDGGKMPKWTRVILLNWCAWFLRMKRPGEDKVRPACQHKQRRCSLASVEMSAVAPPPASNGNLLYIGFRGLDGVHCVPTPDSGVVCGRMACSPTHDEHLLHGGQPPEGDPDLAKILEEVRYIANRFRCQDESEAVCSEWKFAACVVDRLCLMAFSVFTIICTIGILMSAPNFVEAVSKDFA

In experiment [1], “OSK-1 (from UniProt P55896 1-38) (peptide)” returned an IC50 of 500 nM. This lies in the sub-micromolar range. In experiment [1], “spinoxin (from UniProt P84094 1-34) (peptide)” returned an IC50 of 500 nM. As to DNWWPKPPHQGPRPPRPRPKP (not fully specified, source: synthetic peptide) [azemiopsin], the IC50 was found to be 180 nM in experiment [1] and 22000 nM with human neuronal α7 nAChR.
